Test results: US20240336656A1
Each block holds one binder with its values, some of them ahead of it. Starred links: 1 amine or outer side, 2 acyl side, 3 side chain; linkers in the order of their positions; H or OH if unused. Positions of bridges follow the written chain, without caps; N, C: chain ends. Non-standard residues stand in square brackets, D forms with d. Groups on a side chain read outwards from the residue. Chains are numbered I, II in the order given. No end group written: not given here. *: point of attachment. TATA = O=C(CC[*:1])N1CN(C(=O)CC[*:2])CN(C(=O)CC[*:3])C1; PEG12 = NCCOCCOCCOCCOCCOCCOCCOCCOCCOCCOCCOCCOCCC(=O)O; Biotin = O=C1N[C@H]2[C@H](CS[C@H]2CCCCC(=O)*)N1; 1Nal = N[C@@H](Cc1cccc2ccccc12)C(=O)O; Hyp = O=C(O)[C@@H]1C[C@@H](O)CN1; hArg = N=C(N)NCCCC[C@H](N)C(=O)O; tBuAla = CC(C)(C)C[C@H](N)C(=O)O; Nle = CCCC[C@H](N)C(=O)O; Pent4ynoyl = C#CCCC(=O)*

Key:
[1] = molecular target: human CD137 extracellular domain (human), Q07011; experiment: SPR direct binding, BCY13582 captured with reversible biotin capture kit, soluble CD137 ECD; n = 3
Sequence of human CD137 extracellular domain (human), Q07011 (Q07011 24-186): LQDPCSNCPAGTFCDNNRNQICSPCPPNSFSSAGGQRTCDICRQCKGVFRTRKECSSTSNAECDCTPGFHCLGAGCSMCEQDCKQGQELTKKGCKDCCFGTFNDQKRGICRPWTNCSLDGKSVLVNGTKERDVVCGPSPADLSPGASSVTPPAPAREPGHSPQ

[2] = molecular target: T1, cyno CD137 extracellular domain (cyno), A9YYE7; experiment: SPR direct binding, BCY13582 captured with reversible biotin capture kit, soluble CD137 ECD; n = 1
T1 chain: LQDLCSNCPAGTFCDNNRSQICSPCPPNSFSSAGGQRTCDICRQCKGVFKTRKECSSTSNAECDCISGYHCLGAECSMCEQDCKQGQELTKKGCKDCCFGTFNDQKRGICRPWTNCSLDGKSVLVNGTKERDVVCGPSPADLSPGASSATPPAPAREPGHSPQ

[3] = molecular target: CD137 (TNFRSF9) on cells (human), Q07011; experiment: cell-based or functional assay
Sequence of CD137 (TNFRSF9) on cells (human), Q07011 (Q07011 24-255): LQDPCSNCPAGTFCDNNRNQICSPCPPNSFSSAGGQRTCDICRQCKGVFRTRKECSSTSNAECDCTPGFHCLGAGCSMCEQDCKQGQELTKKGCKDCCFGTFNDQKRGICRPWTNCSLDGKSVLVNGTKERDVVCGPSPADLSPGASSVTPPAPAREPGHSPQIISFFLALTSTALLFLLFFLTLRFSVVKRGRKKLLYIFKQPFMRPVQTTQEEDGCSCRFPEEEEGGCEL

Kd [1]: 8.4 nM
Kd [2]: 4.23 nM
EC50 (nM) of fold induction over background, CD137 reporter assay, coculture with HT1376 (human) [3]: 0.58 nM
EC50 (nM) of fold induction over background, CD137 reporter assay, coculture with MDA-MB-468 (human) [3]: 0.34 nM
B1: BCY13582 (peptide)
peptide 1: {N‑(acid-PEG3)‑N‑bis(PEG3-azide) linker}-CP[1Nal][dD]CM[hArg]DWSTP[Hyp]WC
peptide 2: Ac-C[tBuAla]PE[dK](Pent4ynoyl)PYCFADPY[Nle]CA
peptide 3: Ac-C[tBuAla]PE[dK](Pent4ynoyl)PYCFADPY[Nle]CK([PEG12-Biotin])
modifications: linker I:1-I:5-I:15, II:1-II:8-II:15, III:1-III:8-III:15 via TATA; not fully specified (bridges); also: chains 2 and 3 triazole-clicked via D-Lys(PYA) to the N-(acid-PEG3)-N-bis(PEG3-azide) linker, chain 1 joined to the linker at its N-terminus

EC50 (nM) of fold induction over background, CD137 reporter assay, coculture with HT1376 (human) [3]: 1.7 nM
EC50 (nM) of fold induction over background, CD137 reporter assay, coculture with MDA-MB-468 (human) [3]: 0.84 nM
B2: BCY13583 (peptide)
peptide 1: {N‑(acid-PEG3)‑N‑bis(PEG3-azide) linker}-CP[1Nal][dD]CM[hArg]DWSTP[Hyp]WC
peptide 2: Ac-C[tBuAla]PE[dK](Pent4ynoyl)PYCFADPY[Nle]CA
peptide 3: Ac-C[tBuAla]PE[dK](Pent4ynoyl)PYCFADPY[Nle]CK(Alexa Fluor 488)
modifications: linker I:1-I:5-I:15, II:1-II:8-II:15, III:1-III:8-III:15 via TATA; not fully specified (bridges); also: chains 2 and 3 triazole-clicked via D-Lys(PYA) to the N-(acid-PEG3)-N-bis(PEG3-azide) linker, chain 1 joined to the linker at its N-terminus
